From article PMC9716016

Substrate: N
Test: cells, lysate or membranes
Conditions: labelled compound; (15NH4)2SO4 (60% 15N), 10 min; N-starved 3 d; qko background subtracted; whole-root uptake

B1: ScAMT2;1 (Saccharum hybrid cultivar SP80-3280) (protein)
chain: MAASGGAYAAQLPAVPEWLNKGDNAWQLTAATLVGIQSMPGLVVLYGSIVKKKWAVNSAFMALYAYASSLLVWVLVGFRMAFGERLLPFWGKAGVALSQGYLVRRASLSATAHGDTPRTEPLYPEATLVLFQFEFAAITLVLLAGSVLGRMNIKAWMAFTPLWLLFSYTVGAFSLWGGGFLYHWGVIDYSGGYVIHLSSGVAGFTAAYWVGPRLKSDRERFSPNNILLMIAGGGLLWMGWAGFNGGAPYAANIAASVAVLNTNVSAATSLLTWTCLDVIFFNKPSVIGAVQGMMTGLVCITPGAGLVQTWAAVIMGVFAGSVPWFTMMILHKKSALLMKVDDTLAVFHTHAVAGLLGGVLTGLLATPELLEIESPVPGLRGAFYGGGAQQVGKQLAGAAFVVAWNVAVTSLILFAIGLLVPLRMPDDQLMIGDDAAHGEEAYALWGDGEKFDATRHDLAARVGGGGMMDREGSADQRMSGMGARGVTIQL
Km: 90.17 µM
